Experimental data published in the supplement of paper PMC10567573.

B1: SAT2 (parent)
chain: IIKKVAEVALDKGCSQFRLAVLDW
B2: GFOD1 (parent)
chain: SDDFCTFQMVLEGGVCCTVTLNFN

Variants of: B1
Experiment: protein stability index of a GFP-peptide fusion (GPS, HEK-293T) (PSI 1-6); higher = more stable
Details: c terminus: a fixed tail appended
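Also: lentivirally expressed fusions sorted by FACS into six bins by GFP to DsRed ratio, PSI derived from sequencing read proportions per bin multiplied by bin number.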

Variant | protein stability index
IIKKYAEVALDKGCSQFRLAVLDW [V5Y] | 1.04
IIKKGAEVALDKGCSQFRLAVLDW [V5G] | 3.27
IIKKNAEVALDKGCSQFRLAVLDW [V5N] | 3.44
IIKKFAEVALDKGCSQFRLAVLDW [V5F] | 3.49
IIKKDAEVALDKGCSQFRLAVLDW [V5D] | 1.52
IIKKVAEVALDKGCSQFRLAVWDW [L22W] | 4.19
IIKKVAEVALDKGCSQFRLAVDDW [L22D] | 1.23
IIKKVAEVALDKGCSQFRLAVTDW [L22T] | 3.66
IIKKVAEVALDKGCSQFRLAVKDW [L22K] | 2
IIKKVAEVALDKGCSQFRLAVPDW [L22P] | 2.5
IIKKVAEVALDKGCSQFRLAVFDW [L22F] | 1.86
IIKKVAEVALDKGDSQFRLAVLDW [C14D] | 2.61
IIKKVAEVALDKGNSQFRLAVLDW [C14N] | 4.56
IIKKVAEVALDKGSSQFRLAVLDW [C14S] | 2.97
IIKKVAEVALDKGYSQFRLAVLDW [C14Y] | 2.62
IIKKVAEVALDKGCSQFRYAVLDW [L19Y] | 2.61

Variant | protein stability index
IIKKVAEVALDKGCSQFRRAVLDW [L19R] | 2.5
IIKKVAEVALDKGCSQFRAAVLDW [L19A] | 1.61
IIKKVAEVALDKGCSQFRHAVLDW [L19H] | 3.62
IIKKVAEVALDKGCSQFRNAVLDW [L19N] | 2.69
IIKKVAEVALDKGCSQFRVAVLDW [L19V] | 3.77
IIKKVAEVFLDKGCSQFRLAVLDW [A9F] | 2.31
IIKKVAEVMLDKGCSQFRLAVLDW [A9M] | 2.39
IIKKVAEVNLDKGCSQFRLAVLDW [A9N] | 2.8
IIKKVAEVILDKGCSQFRLAVLDW [A9I] | 2.87
IIKKVAEVAMDKGCSQFRLAVLDW [L10M] | 4.14
IIKKVAEVACDKGCSQFRLAVLDW [L10C] | 3.52
IIKKVAEVATDKGCSQFRLAVLDW [L10T] | 3.02
IIKKVAEVAHDKGCSQFRLAVLDW [L10H] | 1.99
IIKKVAEVASDKGCSQFRLAVLDW [L10S] | 1.05
IIKKVAEVADDKGCSQFRLAVLDW [L10D] | 1.75
IIKKVAEVANDKGCSQFRLAVLDW [L10N] | 1.17

Variants of: B2
Experiment: as above
Details: c terminus: a fixed tail appended

Variant | protein stability index
SDDFCTFQMVLEGGVCCTVTLNFS [N24S] | 2.05
SDDFCTFQMVLEGGVCCTVTLNFL [N24L] | 3.23
SDDFCTFQMVLEGGVCCTVTLNFT [N24T] | 2.47
SDDFCTFQMVLEGGVCCTVTLNFW [N24W] | 3.94
SDDFCTFQMVLEGGVCCTVTLNFF [N24F] | 3.55
SDDFCTFQMVLEGGVCCTVTLNFA [N24A] | 3.67
SDDFCTFQMVLEGGVCCTVTLNFP [N24P] | 3
SDDFCTFQMVLEGGVCCTVTLNFQ [N24Q] | 1.99
SDDFCTFQMVLEGGVCCTVTLNFR [N24R] | 3.43
SDDFCTFQMVLEGGVCCTVTLNFC [N24C] | 2.91
SDDFCTFQMVLEGGVCCTVTLHFN [N22H] | 2.62
SDDFCTFQMVLEGGVCCTVTLIFN [N22I] | 3.6
SDDFCTFQMVLEGGVCCTVTLRFN [N22R] | 2.43
SDDFCTFQMVLEGGVCCTVTLPFN [N22P] | 2.9
SDDFCTFQMVLEGGVCCTVTLQFN [N22Q] | 4.04
SDDFCTFQMVLEGGVCCTVTLEFN [N22E] | 1.62
SDDFCTFQMVLEGGVCCTVTLCFN [N22C] | 3.25
SDDFCTFQMVLEGGVCCTVTLLFN [N22L] | 2.04
SDDFCTFQMVLEGGVCCTVTLYFN [N22Y] | 2.33
SDDFCTFQMVLEGGVCCTVTLWFN [N22W] | 2.88
SDDFCTFQMVLEGGVCCTVTLDFN [N22D] | 2.09

Variant | protein stability index
SDDFCTFQMVLEGGVCCTVFLNFN [T20F] | 3.21
SDDFCTFQMVLEGGVCCTVHLNFN [T20H] | 2.03
SDDFCTFQMVLEGGVCCTVCLNFN [T20C] | 1.75
SDDFCTFQMVLEGGVCCTVPLNFN [T20P] | 1.49
SDDFCTFQMVLEGGVCCTVMLNFN [T20M] | 2.71
SDDFCTFQMVLEGGVCCTVQLNFN [T20Q] | 3.57
SDDFCTFQMVLEGGVCCTVWLNFN [T20W] | 2.71
SDDFCTFQMVLEGGVCCTVLLNFN [T20L] | 1.03
SDDFCTFQMVLEGGVCCTVNLNFN [T20N] | 3.6
SDDFCTFQMVLEGGVCCTVYLNFN [T20Y] | 1.97
SDDFCTFQMVLEGGVCCTVTPNFN [L21P] | 2.02
SDDFCTFQMVLEGGVCCTVTNNFN [L21N] | 1.35
SDDFCTFQMVLEGGVCCTVTENFN [L21E] | 1.63
SDDFCTFQMVLEGGVCCTVTDNFN [L21D] | 1.75
SDDFCTFQMVLEGGVCCTVTYNFN [L21Y] | 1.69
SDDFCTFQMVLEGGVCCTVTSNFN [L21S] | 1.84
SDDFCTFQMVLEGGVCCTVTFNFN [L21F] | 2.73
SDDFCTFQMVLEGGVCCTVTGNFN [L21G] | 2.41
SDDFCTFQMVLEGGVCCTVTANFN [L21A] | 2.61
SDDFCTFQMVLEGGVCCTVTINFN [L21I] | 3
SDDFCTFQMVLEGGVCCTVTRNFN [L21R] | 1.55

Variant | protein stability index
SDDFCTFQMVLEGGVCCTVTQNFN [L21Q] | 1.93
SDDFCTFQMVLEGGVCCTVTMNFN [L21M] | 2.22
SDDFCTFQMVLEGGVCCTVTLNYN [F23Y] | 3.05
SDDFCTFQMVLEGGVCCTVTLNIN [F23I] | 3.75
SDDFCTFQMVLEGGVCCTVTLNNN [F23N] | 4.1
SDDFCTFQMVLEGGVCCTVTLNPN [F23P] | 1.56
SDDFCTFQMVLEGGVCCTVTLNQN [F23Q] | 1.24
SDDFCTFQMVLEGGVCCTVTLNGN [F23G] | 2.44
SDDFCTFQMVLEGGVCCTVTLNSN [F23S] | 2.62
SDDFCTFQMVLEGGVCCTVTLNDN [F23D] | 2.19
SDDFCTFQMVLEGGVCCTVTLNHN [F23H] | 2.43
SDDFCTFQMVLEGGVCCTVTLNEN [F23E] | 3.16
SDDFCTFQMVLEGGVCCTVTLNLN [F23L] | 2.8
SDDFCTFQMVLEGGVCCTVTLNAN [F23A] | 2.62
SDDFCTFQMVLEGGVCCTYTLNFN [V19Y] | 2.38
SDDFCTFQMVLEGGVCCTTTLNFN [V19T] | 3.14
SDDFCTFQMVLEGGVCCTQTLNFN [V19Q] | 1.75
SDDFCTFQMVLEGGVCCTWTLNFN [V19W] | 2.61
SDDFCTFQMVLEGGVCCTRTLNFN [V19R] | 1.9
SDDFCTFQMVLEGGVCCTSTLNFN [V19S] | 2.07
